Data published in patent US20100180464A1, “Cores and microcapsules suitable for parenteral administration as well as process for their manufacture” (STRATOSPHERE PHARMA AB, priority 2007, published 2010).

What was measured:
Format in all cases: physicochemical
[1] = Electrophoresis (SDS-PAGE 12 and 18%) with silver staining of proteins after encapsulation in cores; conditions: cores with sodium hyaluronate and rice starch diluent particles; carbon dioxide atomisation; cold medium ethanol or ethanol containing solid carbon dioxide; dried with air at room temperature
Protocol: (§1) Cores suitable for air suspension coating and containing either human growth hormone (hGH) or erythropoietin (EPO) were prepared by essentially according to Example 1 using carbon dioxide for atomisation but with ethanol or ethanol containing solid carbon dioxide as the cold medium. For hGH the composition contained sodium hyaluronate (1%, about 4.1 g), diluent particles (rice starch, Sigma 57260, 1.83 g) and hGH (217 mg) and for EPO sodium hyaluronate (about 3.4), diluent particles (about 1.48 g) and EPO (11 mg). There was substantial stirring in the cold medium in the presence of solid carbon dioxide and little, if any, backflow of gas. The cold medium was removed by filtration and the cores dried using air at room temperature and atmospheric pressure. Cores suitable for air suspension coating were formed containing hGH (624 mg) and EPO (468 mg). […] No increase in the content of dimer or polymer forms of hGH were observed by HPLC size exclusion chromatography (SEC-HPLC, TSK2000 SWx1, Tosoh Corporation) according to Reslow et al (Sustained release of human growth hormone (hGH) from PLG-coated starch microspheres. Drug Delivery Systems and Sciences, 2002, 2,1 103-109).

[2] = Western blotting for dimer content
Protocol: as §1

[3] = HPLC size exclusion chromatography (SEC-HPLC, TSK2000 SWx1) for dimer or polymer forms; conditions: cores prepared per Example 10
Protocol: as §1

Row | Substance | degradation products detected by electrophoresis [1] | increase in dimer content ([2]; absence of carbon dioxide in the cold medium (ethanol)) | increase in dimer content ([2]; carbon dioxide present in the cold medium (ethanol)) | increase in the content of dimer or polymer forms [3]
1 | erythropoietin [EPO] | No degradation products | clearly higher increase | slight increase | 
2 | human growth hormone [hGH] | No degradation products |  |  | No increase
